Patent US20250340640A1

Target: recombinant protein TCRVB 6-5 (human)
Experiment: SPR, compared with BJM0277

Sequence of recombinant protein TCRVB 6-5 (human) (TCR beta, as listed by the source): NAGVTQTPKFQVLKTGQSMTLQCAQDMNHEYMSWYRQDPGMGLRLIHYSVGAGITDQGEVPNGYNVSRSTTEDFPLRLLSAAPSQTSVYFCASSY

- fold greater affinity than BJM0277: 35 fold
B1: A-H.45 (bispecific antibody, part only; not given: anti-CD19 arm, constant regions, linkers, not shown: another chain or arm of the molecule; a dimerising Fc or GST; small tags and cut ends)
scFv: QVQLVQSGAEVKKPGSSVKVSCKASGYSFTTYYIHWVRQAPGQGLEWMGWFSAGSGNTKYNEKFKGRVTITADTSTSTAYMELSSLRSEDTAVYYCAVSYYSYDVLDYWGQGTTVTVSSGGGGSGGGGSGGGGSGGGGSDIQMTQSPSFLSASVGDRVTITCKASQNVGINVVWHQQKPGKAPKALIYSSSHRYSGVPSRFSGSGSGTEFTLTISSLQPEDFATYFCQQFKSYPLTFGQGTKLEIK
